Measurements taken from the supplement of paper PMC7125110.
± gives the standard error. Variants at the floor of the assay were thinned out.

B1: glmS ribozyme (parent)
chain: AUAAAAGCGCCAGAACUACAGAAAUGUAGUUGACGAGGAGGAGGUUUAUCGAAUUUUCGGCGGAUGCCUCCAAA

How the values were obtained:
Conditions in all cases: with glucosamine-6-phosphate
glucosamine-6-phosphate [1] = variants of: B1; experiment: self-cleavage kobs at 640 uM GlcN6P; higher = faster cleavage; RNA array
How it was run: (§1)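 Barcoded ribozyme variants were transcribed in situ on sequenced MiSeq chips by E. coli RNA polymerase. At 37 °C, a hybridised Cy3 probe tracked them while glucosamine-6-phosphate (40 μM to 10 mM) in HEPES/KCl/Mg(OAc)2 buffer flowed in and tiles were imaged over ~14 h. Per-tile medians of signals normalised to baseline and to non-cleaving reference variants were fit to one- or two-exponential decays, giving kobs. kcat and KM came from weighted Michaelis–Menten fits across concentrations.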

glucosamine-6-phosphate [2] = variants of: B1; experiment: self-cleavage kobs at 2500 uM GlcN6P; higher = faster cleavage; RNA array
How it was run: as §1

glucosamine-6-phosphate [3] = variants of: B1; experiment: self-cleavage kobs at 10000 uM GlcN6P; higher = faster cleavage; RNA array
How it was run: as §1

| Variant | self-cleavage kobs at 640 uM GlcN6P (glucosamine-6-phosphate [1]) [s⁻¹] | self-cleavage kobs at 2500 uM GlcN6P (glucosamine-6-phosphate [2]) [s⁻¹] | self-cleavage kobs at 10000 uM GlcN6P (glucosamine-6-phosphate [3]) [s⁻¹] |
| --- | --- | --- | --- |
| AUAAAAGCGCCAGAACUACAGAAAUGUAGAUGACGAGGAGGACGUUUAUCGAAUUUUUGGCGGAUGCCACCAAA [U30A G43C C58U U69A] | < 1e-05 | < 1e-05 |  |
| AUAAAAGCGCGUGAACUACAGAAAUGUAGUUGACGAGGAGGGGGUUUAUCGAAUUUUCGGCGGAUGCCUCCAAA [C11G A12U A42G] | < 1e-05 | < 1e-05 |  |
| AUAAAAGCGCCAGAUUUACAGAAAUGUAGUUGACGAGGCGGAGGUUUAUCGAAUUUUCGGCGGAUGCCUCCAAA [A15U C16U A39C] | 5.94e-05 ± 1.6e-05 |  |  |
| AUAAAAGCGCCAGAACUACAGAAAUGUAGUUGACGAGGAGGAGGGUUAGCGAAUUUUCGGCGGAUGCCUCCAAA [U45G U49G] | 0.000102 ± 1.6e-05 | 0.000422 ± 8.4e-05 |  |
| AUAAAAGCGCCAGAACUACAGAAAUGUAGGUGACGAGGAGGAGGUUCAUCGAAUUUUCGGCGGAUGCCUCCAAA [U30G U47C] | 0.000187 ± 6.5e-05 | 0.00013 ± 6.3e-05 |  |
| AUAAAGGCGCCAGAACUACAGAAAUGUAGUUGACGAGGAGGAGGUUUAUCGCAUUUUGGGCGAAUCCCUCCAAA [A6G A52C C58G G63A G66C] | < 1e-05 | < 1e-05 |  |
| AUAAAUGCGCCAGAACUACAGAAAUGUAGUUGACGAGGGGGAGGUUUGUCGAAUUUUCGGCGGAUGCCUCCAAA [A6U A39G A48G] | < 1e-05 | < 1e-05 |  |
| AUAAAAGCGCCAGAUCUACAGAAAUGUAGUUGAUGAGGAGUAGGUUUAUCGAAUUUUCGGCGGAUGCCUCUAAA [A15U C34U G41U C71U] | < 1e-05 |  |  |
| AUAAAAGCGCCAGACCUACAGAAAUGUAUAUGACGAGGAGGAGGUUUAUCGAAUUUUCGGCGGAUGCCUCCAAA [A15C G29U U30A] | 0.000117 ± 2.7e-05 | 0.000332 ± 0.00011 |  |
| AUAAAAGCGCCAGAACUACAGAAAUGUAUUUGACGAGGUGUAGGUUUAUCGAAUUUUCGGCGGAGGCCUCCAAA [G29U A39U G41U U65G] | < 1e-05 | < 1e-05 |  |
| AUAAAAGCGCCAGAACUACAGAAAUGUAGUUGACGAGGAGGAGGUUUAUCGAAUUUUCGGUGGAUGCGUCCAAA [C61U C68G] | 4.29e-05 ± 1.5e-05 |  |  |
| AUAAAAGCGCGAGAACUACAGAAAUGUAGUUGACGAGGAGGAGGUUUAUCGACUUUUCUGCGGAUGCCACCAAA [C11G A53C G59U U69A] | < 1e-05 |  |  |
| AUAAAAGCGCCAGCACUACAGAAAUGUAGAUGACGAGGAGGAGGUUUAUCGAAUUUUCGGCGAAUGACUCCAAA [A14C U30A G63A C67A] | < 1e-05 |  |  |
| AUAAAAGCUCCAGAACUACAGAAAUGUAGUUGACGAGGAGGAGAUUUAUCGAAUUUUCGGCGGCUGCCUCCAAA [G9U G44A A64C] | < 1e-05 |  |  |
| AUAAAAGCGCCAGAACUACAGAAAUGUAGUUGACAAGGAUGAUGUUUAUCGAAUUUUCAGCGGAUGGCUCCAAA [G35A G40U G43U G59A C67G] | < 1e-05 | < 1e-05 |  |
| AUAAAAGCGCCAGAACUACAGAAAUGUAGUUGACGAGGUGGAGGUUUUUCGACUUUUCGGCGGAUGCCUCCAAA [A39U A48U A53C] | < 1e-05 |  |  |
| AUAAAAGCGCCAGUACUACAGAAAUGUAGCUGACGAGGAGGAGGUUUAUCGAAUUUUCGGCGGAUGCCUGCAAA [A14U U30C C70G] | 9.88e-05 ± 3e-05 | 8.37e-05 ± 2.2e-05 |  |
| AUAAAAGGGCCAGAACUACAGAAAUGUAGUUGACGAGGACGAGGUUUAUCGAAUUUUCGGCGGAUGCCUCCAAA [C8G G40C] | < 1e-05 | < 1e-05 | < 1e-05 |
| AUAAAAGCGCCAGAACUACAGAAAUGUAGUUGACGAUGAGGAGGUUUAUCGAAUGUUCGGCGGAUGCCGCCAAA [G37U U55G U69G] | 3.09e-05 ± 1.4e-05 |  |  |
| AUAAAAGCGCCAGAACUACAGAAAUGUAAGUGACAAGGUGGAGGUUUAUCGAAUUUUCGGCGGAUGCCUCCAAA [G29A U30G G35A A39U] | < 1e-05 | < 1e-05 |  |
| AUAAAAGCGCCAGAACUACAGAAAUGUAGUUGACGAGGAGGAGGUUUAUCGAAUUUUCGGCGGAUGCCGCAAAA [U69G C71A] | 6.61e-05 ± 2.3e-05 |  |  |
| AUAAAAGCGCCAGAACUACAGAAAUGUAGUUGACGAGGAGGAGGUUUAUGGAAUUUUCGGCGGUUGCCUUCAAA [C50G A64U C70U] | 0.000173 ± 5.1e-05 | 0.000192 ± 4.3e-05 |  |
| AUAAAAGCGCCAGAUCUACAGAAAUGUAGAUCACGAGGAGGAGGUUUAUCGAAUUCCCGGGGGAUGCCUCCAAA [A15U U30A G32C U56C U57C C61G] | < 1e-05 | < 1e-05 |  |
| AUAAAAGCGCAAGUGCUACAGAAAUGUAGUUGACCAGGAGGAGGAUUAUCGAAUUUUCGUCGGAUGCCUCCAAA [C11A A14U A15G G35C U45A G60U] | < 1e-05 |  |  |

| Variant | self-cleavage kobs at 640 uM GlcN6P (glucosamine-6-phosphate [1]) [s⁻¹] | self-cleavage kobs at 2500 uM GlcN6P (glucosamine-6-phosphate [2]) [s⁻¹] | self-cleavage kobs at 10000 uM GlcN6P (glucosamine-6-phosphate [3]) [s⁻¹] |
| --- | --- | --- | --- |
| AUAAAAGCGCCAGAACUACAGAAAUGUAGUUGAUGGGGAGGAGGUUUAUCGAAUUUUCGGCAGAUGCCGCCAAA [C34U A36G G62A U69G] | 0.00111 ± 0.00031 | 0.000939 ± 0.00035 |  |
| AUAAAAGCGCCAGAACUACAGAAAUGUAGUUGACGAGGGGGAGGUUUAUCAAAUUUUCGGCGGAUGCCUCCAAA [A39G G51A] | < 1e-05 | < 1e-05 |  |
| AUAAAAGCGCCAGAACUACAGAAAUGUAGUUGACGAGGAGGAGGUUUAUCGAAUUUUAGGCCGAUGCCUGCAAA [C58A G62C C70G] | 5.64e-05 ± 2.6e-05 |  |  |
| AUAAAAGCGCCUGAAUUACAGAAAUGUAGUUGACGAGGAGGAGGUUUAUCGAAUUUUCGGCGUAUCCCUCCAAA [A12U C16U G63U G66C] | < 1e-05 | < 1e-05 |  |
| AUAAAAGCUCCAGAACUACAGAAAUGUAGUUGACGGGGAGGAGGCUUCUCGAAUUUUCGUCGGAUGCGUCCAAA [G9U A36G U45C A48C G60U C68G] | < 1e-05 | < 1e-05 | < 1e-05 |
| AUAAAAGCGCCAGAACUACAGAAAUGUAGUUAACGAGGAGGAGGUUUAUCUAAUUUUCGGCGGAUGCGUCCAAA [G32A G51U C68G] | 0.000156 ± 5.8e-05 |  |  |
| AUAAAAGCGCCAGAACUACAGAAAUGUAGUUGACGAGGAGGAGGUCUAUCGAAUUUUCGGCGGAUGCCUCGAAA [U46C C71G] | 7.56e-05 ± 1.5e-05 | 0.000331 ± 5e-05 | 0.000149 ± 6.2e-05 |
| AUAAAAGCGCCAGAACUACAGAAAUGUAAUUGACGAGGAGGGGGUUUAUCGAAUUGUCGGCGGAUGCCUCCAAA [G29A A42G U56G] | 0.000337 ± 0.00011 | 0.00148 ± 0.00036 |  |
| AUAAAAGCGCCAGAACUACAGAAAUGUAGUUGACGAGGAGGAAGUUUAUAGAAUUUUCGGCGGAUGCCUCCAAA [G43A C50A] | < 1e-05 |  |  |
| AUAAAGGCGCCCGAACUACAGAAAUGUAGUUGACGAGGAGGAGGUUUAUCGAAUUAUCGGCGGAUGCCUCCAAA [A6G A12C U56A] | 5.6e-05 ± 1.6e-05 | 0.000102 ± 2.1e-05 |  |
| AUAAAAGCGCCAGAACUACAGAAAUGUAGUUGACGAGGAGGAGGGUUAUCGAAUUUUCGGCGGAGUCCCCCAAA [U45G U65G G66U U69C] | 0.000332 ± 7.1e-05 | 0.00052 ± 0.00017 | 0.00192 ± 0.00028 |
| AUAAAAGCGCCAGACCUACAGAAAUGUAGUUGACGAGGAGGAGGUAUAUCGAAUUUUCGUCGGAUGCCUCCAAA [A15C U46A G60U] | < 1e-05 |  |  |
| AUAAAAGCGCCAGAACUACAGAAAUGUAGUAGACGAGGAGGAGGUUUAUGGAAUUUUCGGGGGAUGCCUCCAAA [U31A C50G C61G] | 0.000119 ± 4.7e-05 | 0.000103 ± 3.8e-05 |  |
| AUAAAAGCGCCAGAAGUACAGAAAUGUAGUUGACGAGGAGGAGGUUUAUCGAAUUUUCGGCUGAUCCCUCCAAA [C16G G62U G66C] | < 1e-05 |  |  |
| AUAAAAGCGCCAGAACUACAGAAAUGUAGUUGACGAGGCGGUGGUUUAUCGAAUUUUCGGCCGUUGCCUCCAAA [A39C A42U G62C A64U] | < 1e-05 |  |  |
| AUAAAAUCGCUCGACCUACAGAAAUGUAGUUGACGAGGAGGAGGUUUGUCGAAUUUUCGGCGGAUGCCUCCAAA [G7U C11U A12C A15C A48G] | < 1e-05 |  |  |
| AUAAAAGCGCCAGAACUACAGAAAUGUAGUUGACGAGGAGGAGGUUUAUCGAAUUUUCAGCGGAUGCCACCAAA [G59A U69A] | < 1e-05 |  |  |
| AUAAAAGCGCCAGAACUACAGAAAUGUAGUUGACGAGGAGGAGGUUUGUCGAACUUUCGGCGGAUGUCUCCAAA [A48G U54C C67U] | < 1e-05 |  |  |
| AUAAAAGCGCCAGAACUACAGAAAUGUAGAUAACGAUGAGGAGGUUUACCGAAUUUUCGGCGGUUGCCUCCAAA [U30A G32A G37U U49C A64U] | < 1e-05 |  |  |
| AUAAAAGCGCCAGAACUACAGAAAUGUAGUUGACGAGGAGGACGUUUAUCGAAUUUUCGGUAGAUGCCUCCAAA [G43C C61U G62A] | < 1e-05 |  |  |
| AUAAAAGCGCCAGAACUACAGAAAUGUAAUUGACCAGGAGGAGGUUUGUCGAAUUUUCGGCGGAUGCCUCCAAA [G29A G35C A48G] | < 1e-05 |  |  |
| AUAAAAGCGCCAGAACUACAGAAAUGUAGUUGACGAGGAGGAGGCUUAUCGAAUUUUCGGCGGAUGCCGCCAAA [U45C U69G] | 8.34e-05 ± 3.9e-05 |  |  |
| AUAAAAUCGCCGGAAUUACAGAAAUGUAGUUGACGAGGAGGAGGUUUAUCGAAUUUUCGGCGGAUGCCUCCAAA [G7U A12G C16U] | < 1e-05 | < 1e-05 |  |
